The results in this text go back to IntAct's records for PubMed 22596162.

To fix the notation:
B1: E3 ubiquitin-protein ligase RLIM (Mus musculus), Q9WTV7 (parent)
chain: MENSDSNDKGSDQSAAQRRSQMDRLDREEAFYQFVNNLSEEDYRLMRDNNLLGTPGESTEEELLRRLQQIKEGPPPQSPDENRAGESSDDVTNSDSIIDWLNSVRQTGNTTRSGQRGNQSWRAVSRTNPNSGDFRFSLEINVNRNNGSQTSENESEPSTRRLSVENMESSSQRQMENSASESASARPSRAERNSAEAVTEVPTTRAQRRARSRSPEHRRTRARAERSRSPLQPTSEIPRRAPTLEQSSENEPEGSSRTRHHVTLRQQISGPELLGRGLFAASGSRNPSQGTSSSDTGSNSESSGSGQRPPTIVLDLQVRRVRPGEYRQRDSIASRTRSRSQAPNNTVTYESERGGFRRTFSRSERAGVRTYVSTIRIPIRRILNTGLSETTSVAIQTMLRQIMTGFGELSYFMYSDSDSEPSASVSSRNVERVESRNGRGSSGGGNSSGSSSSSSPSPSSSGESSESSSEMFEGSSEGGSSGPSRRDGRHRAPVTFDESGSLPFLSLAQFFLLNEDDEDQPRGLTKEQIDNLAMRSFGENDALKTCSVCITEYTEGNKLRKLPCSHEYHVHCIDRWLSENSTCPICRRAVLSSGNRESVV

This assay covers variants of B1. As to conditions: with zfp42_mouse Zfp42, P22227.
zfp42_mouse Zfp42, P22227, sequence (P22227 whole entry): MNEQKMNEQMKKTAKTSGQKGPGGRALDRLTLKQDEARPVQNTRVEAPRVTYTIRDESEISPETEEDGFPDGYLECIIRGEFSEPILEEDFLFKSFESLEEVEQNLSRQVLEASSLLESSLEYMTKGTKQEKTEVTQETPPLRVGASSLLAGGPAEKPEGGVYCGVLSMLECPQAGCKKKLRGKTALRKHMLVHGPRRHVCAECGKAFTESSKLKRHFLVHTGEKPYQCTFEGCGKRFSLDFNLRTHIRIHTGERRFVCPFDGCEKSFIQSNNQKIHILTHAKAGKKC
On to MENSDSNDKGSDQSAAQRRSQMDRLDREEAFYQFVNNLSEEDYRLMRDNNLLGTPGESTEEELLRRLQQIKEGPPPQSPDENRAGESSDDVTNSDSIIDWLNSVRQTGNTTRSGQRGNQSWRAVSRTNPNSGDFRFSLEINVNRNNGSQTSENESEPSTRRLSVENMESSSQRQMENSASESASARPSRAERNSAEAVTEVPTTRAQRRARSRSPEHRRTRARAERSRSPLQPTSEIPRRAPTLEQSSENEPEGSSRTRHHVTLRQQISGPELLGRGLFAASGSRNPSQGTSSSDTGSNSESSGSGQRPPTIVLDLQVRRVRPGEYRQRDSIASRTRSRSQAPNNTVTYESERGGFRRTFSRSERAGVRTYVSTIRIPIRRILNTGLSETTSVAIQTMLRQIMTGFGELSYFMYSDSDSEPSASVSSRNVERVESRNGRGSSGGGNSSGSSSSSSPSPSSSGESSESSSEMFEGSSEGGSSGPSRRDGRHRAPVTFDESGSLPFLSLAQFFLLNEDDEDQPRGLTKEQIDNLAMRSFGENDALKTCSVCITEYTEGNKLRKLPCSHEYAVHAIDRWLSENSTCPICRRAVLSSGNRESVV [H569A;C572A], for which the “effect of a mutation on the interaction” value is recorded as “with no effect”.
